One data set deals with ORF2p-His8 core (human (Homo sapiens), UniProt O00370 238-1061). Nature of the data set: X-ray crystallography (2.1 A); dTTP, Mg2+; DSF: 20 mM HEPES-KOH pH 7.6, 100 mM NaCl, 1 mM DTT, 2 mM Mg acetate, thermal ramp; crystals: protein 3 mg/mL, 50 mM NaCl dilution, 2 mM MgCl2, 2 mM dTTP, 1.3:1.
In data set [1] the target is T1, ORF2p core (human (Homo sapiens), UniProt O00370 238-1061). In words: cryo-EM (3.30 A); dTTP, Mg2+; DSF: 20 mM HEPES-KOH pH 7.6, 100 mM NaCl, 1 mM DTT, 2 mM Mg acetate, thermal ramp; crystals: protein 3 mg/mL, 50 mM NaCl dilution, 2 mM MgCl2, 2 mM dTTP, 1.3:1.
The target of data set [2] is T1, ORF2p core. In words: cryo-EM (3.66 A); DSF: 20 mM HEPES-KOH pH 7.6, 100 mM NaCl, 1 mM DTT, 2 mM Mg acetate, thermal ramp; crystals: protein 3 mg/mL, 50 mM NaCl dilution, 2 mM MgCl2, 2 mM dTTP, 1.3:1.

B1: crystallography RNA template:DNA primer hybrid (DNA:RNA)
RNA: UUAGGAAAGCGC
DNA: GCGCTTTCC
modifications: 3' dideoxy-C on DNA primer
In the case of B1, in the data set with ORF2p-His8 core, the binding result was “binds”.

B2: cryo-EM RNA:DNA hybrid (DNA:RNA)
RNA: GGAGCGAAAUUUUCGC
DNA: GCGAAAATTTCGC
modifications: 3' dideoxy-C on DNA primer
As for B2, the binding result with ORF2p core [1] was “binds”.
Turning to AAAAAAAAAAAAAAAAAAAAAAAAA (ssRNA) [oligo-25(A) ssRNA], the binding result with ORF2p core [2] is on record as “binds”.

Source of the values: publication PMC10830420.
